According to patent US8546531B2, “Methods and reagents for preparing multifunctional probes” (The General Hospital Corporation, priority 2008, dated 2013):

System: integrin-expressing B16F0 melanoma
Settings: mouse, in vivo, iv
Experimental: Approximately 1·10^6 B16F0 murine melanoma cells (from C57BL6 mice) in PBS (40 μL) were injected s.c. into the right hind paw of 6-8 weeks female C57BL6 mice (Charles River Laboratories). After 4 weeks, tumors reached a size suitable for nuclear imaging experiments.
SPECT imaging co-registered with high-resolution CT was performed on a X-SPECT™ system (Gamma Medica, Northridge, Calif., USA). The SPECT system has two gamma cameras, equipped with 1 mm diameter medium-energy pinhole collimators. The solid state CT is mounted on the same gantry as the gamma cameras enabling high quality image fusion. The SPECT images were reconstructed using OSEM (ordered subsets expectation maximization) and CT images were reconstructed using a modified Feldkamp cone-beam reconstruction algorithm (COBRA). The ^111In-MSAP-RGD probe (300 μCi in 150 μL) was injected (iv, tail vein) and after 2 hours mice were anesthetized (isoflurane). CT (256 projections, 50 kV, 0.5 mA) was performed followed by a SPECT acquisition with parameters of 64 projections, 30-120 seconds per projection and a radius of rotation of 3.5 cm giving a resolution of 1.8 mm. […] Mean SPECT pixel intensity and tumor volumes were determined by designing regions of interest (ROIs) on the hind paws of the micrometer resolution CT scans and extrapolating these ROIs to the fused SPECT data using Osirix software. […]

With `N=C(N)NCCC[C@@H]1NC(=O)[C@H](CCCCNC(=O)CCCN2C(=O)CC(SC[C@H](NC(=O)[C@H](CCCCNC(=O)CCCCCNc3ccc([N+](=O)[O-])c4nonc34)NC(=O)CN(CCN(CC(=O)O)CC(=O)O)CCN(CC(=O)O)CC(=O)O)C(N)=O)C2=O)NC(=O)[C@@H](Cc2ccccc2)NC(=O)[C@H](CC(=O)O)NC(=O)CNC1=O` (stereo partly shown) (111In complex, metal not drawn) [MSAP-RGD probe] the “distribution of the probe within the tumor” value was “occurred in parts of the tumor with high CD31 (endothelial cell maker) levels and CD11b (monocytes/macrophages marker) levels”.
